Experimental data: patent US20210309722A1 (DUKE UNIVERSITY, published 2021)

B1: GLP1-ELP20%Ala,120-FGF21 (other)
chain: AAHGEGTFTSDVSSYLEEQAAKEFIAWLVKGAGVGVPGVGVPGAGVPGVGVPGVGVPGVGVPGVGVPGAGVPGVGVPGVGVPGVGVPGVGVPGAGVPGVGVPGVGVPGVGVPGVGVPGAGVPGVGVPGVGVPGVGVPGVGVPGAGVPGVGVPGVGVPGVGVPGVGVPGAGVPGVGVPGVGVPGVGVPGVGVPGAGVPGVGVPGVGVPGVGVPGVGVPGAGVPGVGVPGVGVPGVGVPGVGVPGAGVPGVGVPGVGVPGVGVPGVGVPGAGVPGVGVPGVGVPGVGVPGVGVPGAGVPGVGVPGVGVPGVGVPGVGVPGAGVPGVGVPGVGVPGVGVPGVGVPGAGVPGVGVPGVGVPGVGVPGVGVPGAGVPGVGVPGVGVPGVGVPGVGVPGAGVPGVGVPGVGVPGVGVPGVGVPGAGVPGVGVPGVGVPGVGVPGVGVPGAGVPGVGVPGVGVPGVGVPGVGVPGAGVPGVGVPGVGVPGVGVPGVGVPGAGVPGVGVPGVGVPGVGVPGVGVPGAGVPGVGVPGVGVPGVGVPGVGVPGAGVPGVGVPGVGVPGVGVPGVGVPGAGVPGVGVPGVGVPGVGVPGVGVPGAGVPGVGVPGVGVPGVGVPGVGVPGAGVPGVGVPGVGVPGAYPIPDSSPLLQFGGQVRQRYLYTDDDQDTEAHLEIREDGTVVGAAHRSPESLLELKALKPGVIQILGVKASRFLCQQPDGALYGSPHFDPEACSFRERLLEDGYNVYQSEAHGLPLRLPQKDSPNQDATSWGPVRFLPMPGLLHEPQDQAGFLPPEPPDVGSSDPLSMVEGSQGRSPSYASG
B2: ELP20%Ala,120-FGF21 (other)
chain: GVGVPGVGVPGAGVPGVGVPGVGVPGVGVPGVGVPGAGVPGVGVPGVGVPGVGVPGVGVPGAGVPGVGVPGVGVPGVGVPGVGVPGAGVPGVGVPGVGVPGVGVPGVGVPGAGVPGVGVPGVGVPGVGVPGVGVPGAGVPGVGVPGVGVPGVGVPGVGVPGAGVPGVGVPGVGVPGVGVPGVGVPGAGVPGVGVPGVGVPGVGVPGVGVPGAGVPGVGVPGVGVPGVGVPGVGVPGAGVPGVGVPGVGVPGVGVPGVGVPGAGVPGVGVPGVGVPGVGVPGVGVPGAGVPGVGVPGVGVPGVGVPGVGVPGAGVPGVGVPGVGVPGVGVPGVGVPGAGVPGVGVPGVGVPGVGVPGVGVPGAGVPGVGVPGVGVPGVGVPGVGVPGAGVPGVGVPGVGVPGVGVPGVGVPGAGVPGVGVPGVGVPGVGVPGVGVPGAGVPGVGVPGVGVPGVGVPGVGVPGAGVPGVGVPGVGVPGVGVPGVGVPGAGVPGVGVPGVGVPGVGVPGVGVPGAGVPGVGVPGVGVPGVGVPGVGVPGAGVPGVGVPGVGVPGVGVPGVGVPGAGVPGVGVPGVGVPGVGVPGVGVPGAGVPGVGVPGVGVPGAYPIPDSSPLLQFGGQVRQRYLYTDDDQDTEAHLEIREDGTVVGAAHRSPESLLELKALKPGVIQILGVKASRFLCQQPDGALYGSPHFDPEACSFRERLLEDGYNVYQSEAHGLPLRLPQKDSPNQDATSWGPVRFLPMPGLLHEPQDQAGFLPPEPPDVGSSDPLSMVEGSQGRSPSYASG
B3: GLP1-ELP20%Ala,120 (other)
chain: HGEGTFTSDVSSYLEEQAAKEFIAWLVKGAGVGVPGVGVPGAGVPGVGVPGVGVPGVGVPGVGVPGAGVPGVGVPGVGVPGVGVPGVGVPGAGVPGVGVPGVGVPGVGVPGVGVPGAGVPGVGVPGVGVPGVGVPGVGVPGAGVPGVGVPGVGVPGVGVPGVGVPGAGVPGVGVPGVGVPGVGVPGVGVPGAGVPGVGVPGVGVPGVGVPGVGVPGAGVPGVGVPGVGVPGVGVPGVGVPGAGVPGVGVPGVGVPGVGVPGVGVPGAGVPGVGVPGVGVPGVGVPGVGVPGAGVPGVGVPGVGVPGVGVPGVGVPGAGVPGVGVPGVGVPGVGVPGVGVPGAGVPGVGVPGVGVPGVGVPGVGVPGAGVPGVGVPGVGVPGVGVPGVGVPGAGVPGVGVPGVGVPGVGVPGVGVPGAGVPGVGVPGVGVPGVGVPGVGVPGAGVPGVGVPGVGVPGVGVPGVGVPGAGVPGVGVPGVGVPGVGVPGVGVPGAGVPGVGVPGVGVPGVGVPGVGVPGAGVPGVGVPGVGVPGVGVPGVGVPGAGVPGVGVPGVGVPGVGVPGVGVPGAGVPGVGVPGVGVPGVGVPGVGVPGAGVPGVGVPGVGVPGVGVPGVGVPGAGVPGVGVPGVGVPG
B4: GLP1-ELP-FGF21 (after removal of the expression-enhancing sequence) (other)
chain: MSKGPGENLYFQGAHGEGTFTSDVSSYLEEQAAKEFIAWLVKGAGVGVPGVGVPGAGVPGVGVPGVGVPGVGVPGVGVPGAGVPGVGVPGVGVPGVGVPGVGVPGAGVPGVGVPGVGVPGVGVPGVGVPGAGVPGVGVPGVGVPGVGVPGVGVPGAGVPGVGVPGVGVPGVGVPGVGVPGAGVPGVGVPGVGVPGVGVPGVGVPGAGVPGVGVPGVGVPGVGVPGVGVPGAGVPGVGVPGVGVPGVGVPGVGVPGAGVPGVGVPGVGVPGVGVPGVGVPGAGVPGVGVPGVGVPGVGVPGVGVPGAGVPGVGVPGVGVPGVGVPGVGVPGAGVPGVGVPGVGVPGVGVPGVGVPGAGVPGVGVPGVGVPGVGVPGVGVPGAGVPGVGVPGVGVPGVGVPGVGVPGAGVPGVGVPGVGVPGVGVPGVGVPGAGVPGVGVPGVGVPGVGVPGVGVPGAGVPGVGVPGVGVPGVGVPGVGVPGAGVPGVGVPGVGVPGVGVPGVGVPGAGVPGVGVPGVGVPGVGVPGVGVPGAGVPGVGVPGVGVPGVGVPGVGVPGAGVPGVGVPGVGVPGVGVPGVGVPGAGVPGVGVPGVGVPGVGVPGVGVPGAGVPGVGVPGVGVPGVGVPGVGVPGAGVPGVGVPGVGVPGAYPIPDSSPLLQFGGQVRQRYLYTDDDQDTEAHLEIREDGTVVGAAHRSPESLLELKALKPGVIQILGVKASRFLCQQPDGALYGSPHFDPEACSFRERLLEDGYNVYQSEAHGLPLRLPQKDSPNQDATSWGPVRFLPMPGLLHEPQDQAGFLPPEPPDVGSSDPLSMVEGSQGRSPSYASG
B5: GLP1-ELP20%Ala,120-FGF21 (no AA leader) (other)
chain: HGEGTFTSDVSSYLEEQAAKEFIAWLVKGAGVGVPGVGVPGAGVPGVGVPGVGVPGVGVPGVGVPGAGVPGVGVPGVGVPGVGVPGVGVPGAGVPGVGVPGVGVPGVGVPGVGVPGAGVPGVGVPGVGVPGVGVPGVGVPGAGVPGVGVPGVGVPGVGVPGVGVPGAGVPGVGVPGVGVPGVGVPGVGVPGAGVPGVGVPGVGVPGVGVPGVGVPGAGVPGVGVPGVGVPGVGVPGVGVPGAGVPGVGVPGVGVPGVGVPGVGVPGAGVPGVGVPGVGVPGVGVPGVGVPGAGVPGVGVPGVGVPGVGVPGVGVPGAGVPGVGVPGVGVPGVGVPGVGVPGAGVPGVGVPGVGVPGVGVPGVGVPGAGVPGVGVPGVGVPGVGVPGVGVPGAGVPGVGVPGVGVPGVGVPGVGVPGAGVPGVGVPGVGVPGVGVPGVGVPGAGVPGVGVPGVGVPGVGVPGVGVPGAGVPGVGVPGVGVPGVGVPGVGVPGAGVPGVGVPGVGVPGVGVPGVGVPGAGVPGVGVPGVGVPGVGVPGVGVPGAGVPGVGVPGVGVPGVGVPGVGVPGAGVPGVGVPGVGVPGVGVPGVGVPGAGVPGVGVPGVGVPGVGVPGVGVPGAGVPGVGVPGVGVPGAYPIPDSSPLLQFGGQVRQRYLYTDDDQDTEAHLEIREDGTVVGAAHRSPESLLELKALKPGVIQILGVKASRFLCQQPDGALYGSPHFDPEACSFRERLLEDGYNVYQSEAHGLPLRLPQKDSPNQDATSWGPVRFLPMPGLLHEPQDQAGFLPPEPPDVGSSDPLSMVEGSQGRSPSYASG

Columns and labels:
[1] = target: FGF21 receptor complex (murine β-Klotho and FGF receptor 1) (murine, UniProt Q99N32 1-1043; P16092 22-822); assay: cell-based or functional assay
FGF21 receptor complex (murine β-Klotho and FGF receptor 1), sequence (Q99N32 whole entry, chain 1 of 2): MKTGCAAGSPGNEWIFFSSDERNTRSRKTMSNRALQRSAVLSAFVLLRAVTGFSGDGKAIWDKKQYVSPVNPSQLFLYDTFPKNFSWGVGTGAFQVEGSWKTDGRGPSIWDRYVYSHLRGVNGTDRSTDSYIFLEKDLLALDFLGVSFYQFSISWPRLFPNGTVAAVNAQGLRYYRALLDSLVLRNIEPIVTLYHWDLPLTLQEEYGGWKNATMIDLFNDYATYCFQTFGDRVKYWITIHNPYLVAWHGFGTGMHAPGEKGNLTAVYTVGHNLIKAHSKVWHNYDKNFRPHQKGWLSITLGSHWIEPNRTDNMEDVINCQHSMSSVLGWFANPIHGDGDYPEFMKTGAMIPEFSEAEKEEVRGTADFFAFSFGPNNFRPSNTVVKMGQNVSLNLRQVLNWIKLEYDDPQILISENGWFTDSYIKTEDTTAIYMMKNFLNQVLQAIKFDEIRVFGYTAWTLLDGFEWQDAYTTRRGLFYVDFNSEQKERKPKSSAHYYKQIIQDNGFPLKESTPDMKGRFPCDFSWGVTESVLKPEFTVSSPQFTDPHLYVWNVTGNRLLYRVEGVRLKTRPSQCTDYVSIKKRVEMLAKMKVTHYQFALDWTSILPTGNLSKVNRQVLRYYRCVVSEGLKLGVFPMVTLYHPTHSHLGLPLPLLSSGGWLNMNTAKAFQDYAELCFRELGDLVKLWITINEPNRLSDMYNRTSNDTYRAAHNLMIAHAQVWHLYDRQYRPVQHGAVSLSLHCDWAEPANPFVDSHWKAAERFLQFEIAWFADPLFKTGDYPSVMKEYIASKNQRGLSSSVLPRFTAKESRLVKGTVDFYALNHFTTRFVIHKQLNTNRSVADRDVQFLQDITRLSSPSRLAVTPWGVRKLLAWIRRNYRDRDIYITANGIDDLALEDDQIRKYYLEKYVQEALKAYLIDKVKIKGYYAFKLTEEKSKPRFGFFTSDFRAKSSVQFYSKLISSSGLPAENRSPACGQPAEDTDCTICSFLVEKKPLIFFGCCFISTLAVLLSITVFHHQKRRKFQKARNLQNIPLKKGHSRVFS
FGF21 receptor complex (murine β-Klotho and FGF receptor 1), sequence (P16092 22-822, chain 2 of 2): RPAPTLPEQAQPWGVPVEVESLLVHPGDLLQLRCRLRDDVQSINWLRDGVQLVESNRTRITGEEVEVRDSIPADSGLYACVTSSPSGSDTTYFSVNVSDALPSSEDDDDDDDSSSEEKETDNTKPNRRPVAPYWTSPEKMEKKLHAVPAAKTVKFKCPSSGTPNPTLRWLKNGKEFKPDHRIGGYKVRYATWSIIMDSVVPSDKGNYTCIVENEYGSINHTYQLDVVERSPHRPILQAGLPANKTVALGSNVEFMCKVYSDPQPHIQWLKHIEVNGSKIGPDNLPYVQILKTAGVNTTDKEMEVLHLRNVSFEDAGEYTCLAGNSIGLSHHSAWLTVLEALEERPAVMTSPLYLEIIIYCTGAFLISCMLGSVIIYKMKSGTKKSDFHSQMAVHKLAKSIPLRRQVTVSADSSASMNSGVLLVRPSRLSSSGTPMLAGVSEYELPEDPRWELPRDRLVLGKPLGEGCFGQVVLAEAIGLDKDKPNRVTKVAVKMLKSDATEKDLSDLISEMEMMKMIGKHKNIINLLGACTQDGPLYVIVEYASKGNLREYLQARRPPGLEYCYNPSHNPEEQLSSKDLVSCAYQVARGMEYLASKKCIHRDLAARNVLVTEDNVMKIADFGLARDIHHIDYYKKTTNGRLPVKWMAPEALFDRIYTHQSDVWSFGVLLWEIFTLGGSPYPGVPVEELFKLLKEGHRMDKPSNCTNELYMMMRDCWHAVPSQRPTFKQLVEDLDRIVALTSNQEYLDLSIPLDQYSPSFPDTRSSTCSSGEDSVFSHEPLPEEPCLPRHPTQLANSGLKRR

GLP-1 receptor = assay: cell-based or functional assay

| Binder | FGF21 receptor EC50, ERK1/2 phosphorylation (phospho-ERK1/2 normalized to total ERK1/2) in HEK293 cells expressing FGFR1 and β-Klotho [1] [nM] | GLP-1R EC50, cAMP production (cAMP-inducible luciferase reporter) in HEK293 cells expressing GLP-1R (GLP-1 receptor) [nM] | fold increase of EC50 against native GLP1, cAMP production assay (GLP-1 receptor) [fold] | further results |
| --- | --- | --- | --- | --- |
| B1 | 43.2 |  |  |  |
| B2 | 18.8 |  |  | fold increase of FGF21 receptor EC50 against native mouse FGF21, ERK1/2 phosphorylation assay [1]: ~20 fold |
| B3 |  | 0.0295 | ~10 | fold increase of EC50 against native GLP-1, cAMP production assay (GLP-1 receptor): 10 fold; fold increase of GLP-1R EC50 against native GLP-1, cAMP production assay (GLP-1 receptor): ~10 fold |
| B4 |  |  |  | EC50, cAMP production (cAMP-inducible luciferase reporter) in HEK293 cells expressing GLP1R (GLP-1 receptor): 0.212 nM |
| B5 |  | 0.0239 | ~10 |  |
